How the values were obtained:
[1] = molecular target: Cy3-conjugated K9-C-peptide (C-peptide bound to the elastin-like polypeptide composed of 9 [(VPGVG)11(VPGKG)1(VPGVG)1] repeating units), as hydrogel on an amine array; test: cell-based or functional assay
[2] = system: Cy3-conjugated K9-C-peptide (C-peptide bound to the elastin-like polypeptide composed of 9 [(VPGVG)11(VPGKG)1(VPGVG)1] repeating units), as hydrogel on an amine array

Cy3-conjugated K9-C-peptide (C-peptide bound to the elastin-like polypeptide composed of 9 [(VPGVG)11(VPGKG)1(VPGVG)1] repeating units), as hydrogel on an amine array, sequence (chain, as listed by the source): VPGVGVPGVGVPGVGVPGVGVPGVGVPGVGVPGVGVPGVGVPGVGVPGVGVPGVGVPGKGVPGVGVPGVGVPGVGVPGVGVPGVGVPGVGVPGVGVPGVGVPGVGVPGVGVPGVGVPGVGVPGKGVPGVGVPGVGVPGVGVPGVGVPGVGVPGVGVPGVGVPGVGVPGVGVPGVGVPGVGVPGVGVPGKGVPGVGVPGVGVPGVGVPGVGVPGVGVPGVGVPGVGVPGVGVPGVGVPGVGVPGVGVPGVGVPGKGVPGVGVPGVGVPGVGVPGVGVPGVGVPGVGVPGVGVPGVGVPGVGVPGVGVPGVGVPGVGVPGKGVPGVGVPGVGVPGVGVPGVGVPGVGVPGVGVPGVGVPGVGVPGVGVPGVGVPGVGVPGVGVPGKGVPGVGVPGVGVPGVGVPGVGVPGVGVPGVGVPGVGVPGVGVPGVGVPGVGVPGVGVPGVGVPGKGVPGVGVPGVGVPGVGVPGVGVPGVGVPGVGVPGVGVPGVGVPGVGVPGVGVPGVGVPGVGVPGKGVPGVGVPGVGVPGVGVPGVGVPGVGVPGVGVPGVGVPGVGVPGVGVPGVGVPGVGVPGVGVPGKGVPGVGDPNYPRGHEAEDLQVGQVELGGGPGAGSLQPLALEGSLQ

Substance	EC50 of on-chip degradation of Cy3-conjugated K9-C-peptide hydrogel versus protease concentration [1]	highest degradation rate of the hydrogel, at 120 min (time course) [2]	hydrogel degraded after the first elastase-2 treatment (repeated every 30 min) [2]	maximum degradation rate, after the fifth elastase-2 treatment [2]
collagenase-2 (enzyme)	0.17 U/ml	–	–	–
elastase-2	–	72.3% at 120 min	48.6+/-0.8%	89.7+/-0.2%
elastase-2 (enzyme)	0.23 U/ml	–	–	–
pepsin (enzyme)	510 U/ml	–	–	–
trypsin (enzyme)	125 U/ml	–	–	–

Reference: patent US20200360486A1
